Measurements from PMC10382551, “Affinity-matured homotypic interactions induce spectrum of PfCSP structures that influence protection from malaria infection” (Nature Communications, 2023).
Positions count from the first letter of the chain named. Ends that are not written are not given here.

T1: NPNA8 peptide (Plasmodium falciparum (isolate 3D7)., not fully specified)
T1 construct: source: synthetic peptide (InnoPep Inc)
T1 chain: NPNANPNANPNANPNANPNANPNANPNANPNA

T2: NPNA4 peptide (Plasmodium falciparum (isolate 3D7)., not fully specified)
T2 construct: source: synthetic peptide (InnoPep Inc)
T2 chain: NPNANPNANPNANPNA

T3: NPNA8 peptide (Plasmodium falciparum (isolate 3D7)., not fully specified)
T3 construct: source: synthetic peptide (InnoPep Inc, purity >=97%)
T3 chain: T1 chain

T4: NPNA4 peptide (Plasmodium falciparum (isolate 3D7)., not fully specified)
T4 construct: source: synthetic peptide (InnoPep Inc, purity >=97%)
T4 chain: NPNANPNANPNANPNA

B1: 227 Fab (Fab, V domains shown)
VH: QVQLVQSGGGVVQPGRSLRLSCVTSGFTFPAFGMHWVRQAPGKGLEWVAVIWYDGSKKYYADSVRGRFTISRDNSRNTLYLQMHSLRAEDTAVYYCARVKNYESSGYSQCLDYWGQGVLVTVAS
VL: QSVLTQPPSVSGAPGQRVTISCTGSSSNIGAGYDVHWYQQLPGTAPKLLIYGNGNRPSGVPDRFSGSKSGTSVSLAITGLQAEDEADYYCQSYDSSLSAFVFGTGTKVTVL
notes: also called mAb 227; source: ExpiCHO cells, purified (mAb Select PrismA or Capture Select, SEC)
B2: 227 Fab (Fab, V domains shown)
VH: B1 VH
VL: B1 VL
notes: source: ExpiCHO cells, purified (mAb Select PrismA or Capture Select, SEC)
B3: 311 Fab (Fab, V domains shown)
VH: QVQLVESGGGVVPPGRSLRLSCATSGFTFSNYGMHWVRQAPGKGLEWVAIIWYDGSRNFYAASVEGRFTISRDNSKNTLYLQMNSLRVEDTAVYYCARAAYYDTSGYGDYWGQGTLVTVSS
VL: QSVLTQPPSVSGAPGQTVTISCTGGSSNIGAGYDVHWYQQLPGTAPKLLIYGNINRPSGVPDRFSGSKSGTSASLAITGLQAEDEADYYCQSYDRRLSGSWVFGGGTKLTVL
notes: also called mAb 311; source: ExpiCHO cells, purified (mAb Select PrismA or Capture Select, SEC)
B4: 311 Fab (Fab, V domains shown)
VH: B3 VH
VL: B3 VL
notes: as for B2
B5: 311R Fab (Fab, V domains shown)
VH: B3 VH with N31S, R57N, N58K, E65K
VL: B3 VL with R95S, R96S
notes: also called germline-reverted 311; source: ExpiCHO cells, purified (mAb Select PrismA or Capture Select, SEC)
B6: 334 Fab (Fab, V domains shown)
VH: QVQLVESGGGVVQPGRSLTLSCAASGFTFSNYGMHWVRQTPGKGLAWVAIIWYDGSKTYYEDSVKGRFTISRDNSKNTLYLQMNSLRVDDTAVYYCARVRHSSSRHGSAFDLWGQGTLVTVSS
VL: VIQMTQSPSTLSASVGDRVTITCRASQSVSTWLAWYQQKPGQGPKLLIYEASSLESGVPSRFSGSGSGTEFTLTISSLQPDDFATYYCQQYNSYSFWTFGQGTKVEIK
notes: also called mAb 334; source: ExpiCHO cells, purified (mAb Select PrismA or Capture Select, SEC)
B7: 239 Fab (Fab, V domains shown)
VH: QVQLVESGGGVVQPGRSLRLSCAASRLTFRNFGMHWVRQTPGKGLEWVAVIWHDGSNKFYADSVEGRFTISRDNSKNTLYLQMNSLRDEDTAIYYCAKDWGGASDRVFDYWGRGTLVIVSS
VL: DIQMTQSPSTLSASVGDRVTITCRASQSVSTSLAWYQQKPGKAPNLLIYQASTLYRGVPSRFSGSGSGTEFTLTIGSLQPDDFATYYCQHYNSYSRITFGQGTRLEIK
notes: also called mAb 239; source: ExpiCHO cells, purified (mAb Select PrismA or Capture Select, SEC)
B8: 239 Fab (Fab, V domains shown)
VH: B7 VH
VL: B7 VL
notes: as for B2
B9: 239R Fab (Fab, V domains shown)
VH: B7 VH with R30S, N31S, F32Y, E65K
VL: B7 VL with R56T
notes: also called germline-reverted 239; source: ExpiCHO cells, purified (mAb Select PrismA or Capture Select, SEC)
B10: 364 Fab (Fab, V domains shown)
VH: QVQLVESGGGVVQPGGSLRLSCAASGFTFSGYGMHWVRQVPGKGLEWVAIIWFDGSQKYYADSVQGRFTISRDNSKKTLFLRMNSLRAEDTAVYYCAKVHDDEPTQDYWGQGTLVTVSS
VL: DIQMTQSPSTLSASVGDRVTITCRASQGISTSLAWYQQKPGKAPKLLIYKASSLESGVPSRFSGSGSGTEFTLTITSLQPEDFATYYCQQYKRYWTFGQGTKVEIK
notes: also called mAb 364; source: ExpiCHO cells, purified (mAb Select PrismA or Capture Select, SEC)
B11: 337 Fab (Fab, V domains shown)
VH: QVQLVESGGGVVQPGRSLRLSCAASGFSFSTYGMHWVRQAPGKGLEWVALIWHDGSKKFYSESVRGRFTISRDNSMDTLYLQMSSLRAEDTAVYYCARDGADYFDSTGGAFDIWGQGTMVIVSS
VL: EIVMTQSPATLSVSPGERATLSCRASQSVSSNLAWYQQKPGQAPRLLIYGASTRATGIPARFSGSGSGTEFTLTISSLQSEDFATYYCQQYKTWWTFGQGTKVEIK
notes: also called mAb 337; source: ExpiCHO cells, purified (mAb Select PrismA or Capture Select, SEC)
B12: 356 Fab (Fab, V domains shown)
VH: QVQLVESGGGVVQPGRSLRLSCAASGFTFRNFGMHWVRQTPGKGLEWVAVIWHDGSNKFYADSVEGRFTISRDNSKNMIYLQMNSLRVEDTAIYYCARDSLFYDHDNSGYYGYWGQGTLVTVSS
VL: QIVMTQSPATVSVSPGERATLSCRASRSVTSKLAWYQQKPGQAPRLLIYGASTRATGIPARFSGSGSGTEFTLTISSLQSEDFAVYFCQQYNNGFTFGPGTKVDFK
notes: also called mAb 356; source: ExpiCHO cells, purified (mAb Select PrismA or Capture Select, SEC)
B13: 356R Fab (Fab, V domains shown)
VH: B12 VH with R30S, N31S, F32Y, E65K
VL: B12 VL with Q1E, R27Q
notes: also called Fab356R; germline-reverted 356; source: ExpiCHO cells, purified (mAb Select PrismA or Capture Select, SEC)
B14: 356R Fab (Fab, V domains shown)
VH: B12 VH with R30S, N31S, F32Y, E65K
VL: B12 VL with Q1E, R27Q
notes: also called germline-reverted 356; source: ExpiCHO cells, purified (mAb Select PrismA or Capture Select, SEC)

Experiments:
Assay in all cases: BLI
Conditions in all cases: both partners purified
[1] = target: T1, NPNA8 peptide
[2] = target: T2, NPNA4 peptide
[3] = target: T3, NPNA8 peptide
[4] = target: T4, NPNA4 peptide

Row | Binder | Kd [1] [nM] | koff [1] [s⁻¹] | kon [1] [M⁻¹ s⁻¹] | Kd [2] [nM] | koff [2] [s⁻¹] | kon [2] [M⁻¹ s⁻¹] | Kd [3] [nM] | Kd [4] [nM]
1 | B1 | 80.3 | 0.0035 | 40000 | 37.5 | 0.0058 | 130000 | – | –
2 | B2 | – | – | – | – | – | – | 23.7 | 46.3
3 | B3 | 6.1 | 0.00025 | 66000 | 212 | 0.0041 | 27000 | – | –
4 | B4 | – | – | – | – | – | – | 6.11 | 212
5 | B5 | 211 | 0.0051 | 71000 | 67.4 | 0.0088 | 71000 | – | –
6 | B6 | 22.4 | 0.0013 | 52000 | 49.9 | 0.0021 | 53000 | – | –
7 | B7 | 7.2 | 0.00056 | 83000 | 44.7 | 0.0063 | 110000 | – | –
8 | B8 | – | – | – | – | – | – | 7.22 | 44.7
9 | B9 | 205 | 0.022 | 120000 | 165 | 0.033 | 410000 | – | –
10 | B10 | 4.9 | 0.00027 | 65000 | 260 | 0.0027 | 43000 | – | –
11 | B11 | 39.4 | 0.0035 | 66000 | 36.9 | 0.007 | 130000 | – | –
12 | B12 | 6.4 | 0.00056 | 87000 | 123 | 0.013 | 80000 | – | –
13 | B13 | – | – | – | – | – | – | 124 | 65
14 | B14 | 124 | 0.017 | 79000 | 79 | 0.03 | 560000 | – | –
